Results on 21 sequences are retold here after the DeepSol protein solubility set.

A short description of the data set: soluble on expression in E. coli; label from the status in PepcDB or PDB records.
Regarding “MGMKFLNKKGWHTGSLRNIETVWKAEQKQEAEQKKLEELRLQILQERERSEFRALQEQAGLIPRQERLEFLYDSGLAVGKGSASGSGVSFQKEEQPLAKSEAGSSASEKPDQSAPGALFEEKAQSANDSWRKLHSDPLLLIRQREQEALAKIKNNPVKMALIRKSVEEKGKGKDGDTKEHKKKHKRKSGKHQKQSSSRQRSDSEEDSGEENNGRKSHHQKTSGTHDRHYERPRSDLEDESKGRESRDRHYEKRRSELDDGHKRRERHDTHYERRRSEMDDESKRRESRDNHYERRRSDLDDESKRRESHDKHFERQRSDLDDEYKRRESQDKRRRSDIDDEPKRRDARPNEKYRNRSPKGGVERENLKSYGQEDKKRKAEDLDSGKPNEYQNRRRKGGSKLSEEERAARLKQMQMDAEVHEEQRWTRLKKADETDAVEADKNKVSTGKSFLDDANKSVYGVEKGGSSTIEESVRRRSYYSQRGTAAEGNAFRR”, the “soluble on expression in E. coli” value is listed as “not soluble”.

As to “MRLYLLAFLALFGMNAMAADNWKAFPYDQSAYDYPGDKLKEAWPRLTRGFGDYPYPDADWVVNMATAHPDALEKTVKAGTGFTGKPEEAAQYAARLQDVWRLLFRGDYAKAKEQGLALGVGGQVPAMFAQVLYAMFLAPGQAEKQRLLEEVIDYTEQAGPLVKADIVAQFGSVYAKARLAEELSVPVVLKRGYTSEIPKELDALLARQPNQPFALALYGGYEAGVIRKVGKLVGKMTYGVSADKMEQYFARSFRQANDLPIGHYEYANALTYVYGDDEREKAIAQLKQAVAIKPINAMEALEVAHAKKLLAGFEQNTAQR”, the “soluble on expression in E. coli” value is recorded as “not soluble”.

As to “MGSDKIHHHHHHMTASTVRSPIKVQMRQTGYAARQQRAARMGGMLYQLHELTRNLLAPWVHQAQANAKMFSDPDSLWASLPGAERMAASNELFHRLGKEYEKPAWALDDVEVDGHSLPIIEREVLSKPFCRLLRFKRFSDHVELIGTMKQQPAVLVVAPLSGHHATLLRDTVRTLLRNHKVYVTDWVDARMVPLEAGAFRLEDYIAYIQEFIRHIGAERLHVVSVCQPTVPVLAAVSLMASNDEPTPRSLVMMGGPIDARRSPTQVNNLATENGIEWFQNNLIHTVPFPYPGHGRQVYPGFLQHAGFLSMNPNRHVMSHWDFYTDLVKGDLQDAQAHRQFYDEYNAVLDMPSEYYLDTIRVVFQEFLLPQGKWKVDGQLVMPSAIRNTALLSIEGELDDIAGLGQTEAVHDLCTGIDAAHRRHLVVEGAGHYGIFSGRRWREVVYPQVREFIARYDADPVGSRDPATVTPIRKRGKRA”, the “soluble on expression in E. coli” value is on record as “not soluble”.

“GSPGISGGGGGIPVIDGPTQILVRDVSDTVAFVEWTPPRAKVDFILLKYGLVGGEGGKTTFRLQPPLSQYSVQALRPGSRYEVSISAVRGTNESDASSTQFTTEIDAPKNLRVGSRTATSLDLEWDNSEAEAQEYKVVYSTLAGEQYHEVLVPKGIGPTTKTTLTDLVPGTEYGVGISAVMNSKQSIPATMNARTELDSPRDLMVTASSETSISLIWTKASGPIDHYRITFTPSSGISSEVTVPRDRTSYTLTDLEPGAEYIISITAERGRQQSLESTVDAFT”: the “soluble on expression in E. coli” value is listed as “soluble”.

As for “MGSDKIHHHHHHMPRIHFNPDGRRSPTEFEPVTVHHRKPPLDGIISSHRHNWSQLTCPLKGSMRVTTERQVWTVTSFRAVWIPPGVDHELTMVGATEFHAVFIDPQHSPLPANQCCVVDVSPLMRELMQWLGADYGPATDHSRRLTDVLLEEVRRATRRTSALVLPGDRRLKSLCEALMEDPGSTLTLGEWAHRTGASERTLARLFQIELGTTFGAWRQQLRLSCAVDLLRSGLSLSRIAADLGYADSAAFSTMFKRAFGVAPSRYHASSAQAMN”, the “soluble on expression in E. coli” value was “not soluble”.

Turning to “MGSDKIHHHHHHMRKVAIYSRVSTINQAEEGYSIQGQIEALTKYCEAMEWKIYKNYSDAGFSGGKLERPAITELIEDGKNNKFDTILVYKLDRLSRNVKDTLYLVKDVFTANNIHFVSLKENIDTSSAMGNLFLTLLSAIAEFEREQIKERMQFGVMNRAKSGKTTAWKTPPYGYRYNKDEKTLSVNELEAANVRQMFDMIISGCSIMSITNYARDNFVGNTWTHVKVKRILENETYKGLVKYREQTFSGDHQAIIDEKTYNKAQIALAHRTDTKTNTRPFQGKYMLSHIAKCGYCGAPLKVCTGRAKNDGTRRQTYVCVNKTESLARRSVNNYNNQKICNTGRYEKKHIEKYVIDVLYKLQHDKEYLKKIKKDDNIIDITPLKKEIEIIDKKINRLNDLYINDLIDLPKLKKDIEELNHLKDDYNKAIKLNYLDKKNEDSLGMLMDNLDIRKSSYDVQSRIVKQLIDRVEVTMDNIDIIFKF”, the “soluble on expression in E. coli” value is “not soluble”.

With “MLEFEQGFNHLATLKVIGVGGGGNNAVNRMIDHGMNNVEFIAINTDGQALNLSKAESKIQIGEKLTRGLGAGANPEIGKKAAEESREQIEDAIQGADMVFVTSGMGGGTGTGAAPVVAKIAKEMGALTVGVVTRPFSFEGRKRQTQAAAGVEAMKAAVDTLIVIPNDRLLDIVDKSTPMMEAFKEADNVLRQGVQGISDLIAVSGEVNLDFADVKTIMSNQGSALMGIGVSSGENRAVEAAKKAISSPLLETSIVGAQGVLMNITGGESLSLFEAQEAADIVQDAADEDVNMIFGTVINPELQDEIVVTVIATGFDDKPTSHGRKSGSTGFGTSVNTSSNATSKDESFTSNSSNAQATDSVSERTHTTKEDDIPSFIRNREERRSRRTRR”, the “soluble on expression in E. coli” value is given as “not soluble”.

As to “MGSDKIHHHHHHMQVIIVEDEKTLRFSPLADLKPVYDLVTGCFSLRQRFVEALGARQKLTWHLRRHIAPWFAEANPGSVVNRVLEDEVLLVNGRLICDAAVTQFIDARKIAPGEALIQNGNLLFCRTTAEPLHVLETVFPDTIDGMVLAGAFSCVEVSGFRLIENLWDPVAMHPAMMREDGAALALGRIEGEVHPSAILVNPSAITVEKGAEVKAGAVLDASDGFIYIGAGAVVEPVALLMENVYIAPGARVKSGARIYSNVCIGGGAKAGGEIEDSIMEPFSNKQHDGFLGHSYISSWCNLGAGTDTSDLKNNYSPVSIETAHGKMATGQQFLGLLMGEHSKCSIGTRFNTGTVVGISSNIFGNGMPAKYVPSFSWGDGNPGTARYEADKAVETARKVMARRKVEMSAAYEAMFRAVAGE”, the “soluble on expression in E. coli” value is listed as “not soluble”.

In the case of “MGSDKIHHHHHHMAVSELQVQSALKELIDPNTHKDYVTTKSARNIKIDGDAVSVDIALGYPAQSQLATIKQQVEDKLKTLDGVSKATANVSFKIVSHSVQRGVKLIPNVKNIIAVASGKGGVGKSTTAVNLALALAAEGARVGMLDADIYGPSQPTMLGITDKPESTDGKNLDPLIGHGIQAMSIGFLIDVETPMVWRGPMVTQALEQLLNNTNWNELDYLVVDLPPGTGDIQLTLAQRVPVTGAVIVTTPQDIALIDARKGLKMFEKVGIPIIGVVENMSLHICSNCGHEERIFGEGGGERMCRDYNVEFLGALPLDSSIRADTDSGKPSVVSDPDGRVTEIYKQIARRVAVKIGETAVDHSAKFPNIVISNT”, the “soluble on expression in E. coli” value is “not soluble”.

On to “MSLNGQSEYKGKLDYIIVLGAGLRGKHMLGTQYERVKKAAEYVKENPDVKIVVSGGKGNGEDISEAEAMKQYFLNKGFKNDSIIMEDKSKNTFENLRNSKKILEKISNKKEIRVGVVTSSYHITRAKLLGKRVGLKLYAIPAPINKLLLLQSYTREFFAFYKSIIFDRGEGHHHHHH”, for which the “soluble on expression in E. coli” value is reported as “not soluble”.

Regarding “MAGDPMKKQFLEKAVFTVAATAATVVLGNKMADADTYTLQEGDSFFSVAQRYHMDAYELASMNGKDITSLILPGQTLTVNGSAAPDNQAAAPTDTTQATTETNDANANTYPVGQCTWGVKAVATWAGDWWGNGGDWASSASAQGYTVGNTPAVGSIMCWTDGGYGHVAYVTAVGEDGKVQVLESNYKDQQWVDNYRGWFDPNNSGTPGSVSYIYPNLEHHHHHH”, the “soluble on expression in E. coli” value was “soluble”.

As to “MSISWSMSRNMFKLAHISDVHLGPLPRLSIQELFSKRITGFVNWHRNRRKHLFASTLDLLLDDIRTHRADHLAVTGDLVNLASGIEIRAAAAWLRALGDPADTSVVPGNHDAYVPGAYEKSMRAWYDYVRGDLAPPQWQEDRRIFPYLRVRDKVAIVGCSTAVATPPFAASGFFSARQARDTVNMLRAAGEAGLFRVVMIHHPPIRGATAFHKRMIGIRRFAAVISTGGAELVLHGHTHLNTLHWLRGQVQPVPVVGIASASQGPGSIKPPAAYNLFSIDGAPGAWELTGERFSLNRTGDAMMPESVDIFAPLEHHHHHH”, the “soluble on expression in E. coli” value is listed as “not soluble”.

In the case of “MSYNEKSSKSIHEKRAIAKYAASLIEDGDCIFVDAGTTTYELIDYLEGKDILVVSNGLSHIDTLIQKNIKCYVIGGNIKISTKAITGCDALMCLSKFRFDKCFIGANGVHHTYGLTTPDTEEAILKECAINNSRKAYVLADDSKFGEISTIKFSDINKCVIITNEKPKDLEHHHHHH”, the “soluble on expression in E. coli” value was “not soluble”.

“MNIREIAAKCSKCGYCTTCPTYRIEGWETVSPRGKIQLALKYVDGEIDVDQKIVKDIFKCSVCGLCQEVCPVELPLIDFWEELRRTLVQKGLAPLSVHRKLREILEHHHHHH”: the “soluble on expression in E. coli” value is “not soluble”.

“LKVGFFKRNLKEKIEAGRGVPNGIPAEDSEQLASGQEAGDPGCLKPLHEKDSESGGGKDG”: the “soluble on expression in E. coli” value is reported as “soluble”.

As to “MTGSQKLILTGRPFLHHQGIINQVSTVTKVIHHELEVAASADDIWTVYSWPGLAKHLPDLLPGAFEKLEIIGDGGVGTILDMTFVPGEFPHEYKEKFILVDNEHRLKKVQMIEGGYLDLGVTYYMDTIHVVPTGKDSCVIKSSTEYHVKPEFVKIVEPLITTGPLAAMADAISKLVLEHKSKSNSDEIEAAIITVHHHHHH”, the “soluble on expression in E. coli” value is reported as “soluble”.

With “MGSSHHHHHHSSGLVPRGSHMKIAFVIRKDCSRCARIAESIIDLLPKDWEIIYDHEAAKFLNSKGLDISQISADVIITIGGDGTVLRTLQMAKGPVLGINMGGLGFLTELEVDEVGSAIFKLIKGQYRITESMKLKVEINGDRVEDCTNEAVVHTERIARIRQFKIYIDGHFLSTMKSDGIIVATPIGSSSYSSSAGGPLLLPTLKGMVISYLAPYSSRLKPVVVTSDSTVEIKIAGRDQECILILDGQREYTVRSGDTVRISRSENSARFLSFRESVYDRIRDKVIKHVVN”, the “soluble on expression in E. coli” value is recorded as “soluble”.

In the case of “GPGSMTSASKKSTEENSEEVECTNSSRKRRMRQRERNIYISECHGIKELSSLVRRGFQQIMTARGLFISGCPDLVKLDDGTSGEEEGGEYYRQLEEVQVSRCPRLTDLSGLGKCKYLKVVDISDCRKLENIGELKSCRTLEKLALSRCTGLVDVNLRGFGKLLSFDIFKCANLTKICGLFGCPILETLTVEECGDVKEMEVRTIRGRVETLRIAGKRAMENVGFLCLFTNMKKLALCGCVGTVAEVLGEEAGGLPRLKWLELIGIRMERQMKDKPGNGVAATEEGNNAKRVLPMIVQNE”, the “soluble on expression in E. coli” value is listed as “not soluble”.

Consider “MIVVLKMGADKNEVKKLIEAIGREGVEVNPIDGTELTVLGLVGDTSKIDAKRIEANKVVEKVMHVVEPFKKANRKFHPEPSIINVNGMEIGSKKIAMIAGPCSVETEDQIVSIAKDVKKSGAGFLRGGAFKPRTSPYAFQGLKYDGLDLLKKAKEKTGLPIVTEIMSTQDIDIFEENVDVIQVGARNMQNFDLLKELGKTNKTILLKRGLSATIEEWLMSAEYIMAGGNENVVLCERGIRTFETYTRNTLDLSAILAVKKLSHLPVIVDPSHAAGKSWMVDSLSKAAIAVGADGLIIEVHNDPAHALCDGKQSIKPNEYDELISELKTIASAVGREI”, for which the “soluble on expression in E. coli” value is given as “not soluble”.

As for “MPAPLYGADDPLRCSGNSVSEVLDKFRKKYDLIMSLPQETKEEKEFRHCIWLAEKEEREQIYQTSIRPFRKATYTHFPEIDPRLRNYRSRYGAISND”, the “soluble on expression in E. coli” value is listed as “not soluble”.

For “MAHHHHHHMGKGAVHPNGSNFCRAIKYNIVDKMRMLVETNLYDRPRWLEWAERAPPIEIHNISLKSRYNNNKYIDLVKFLLKKYPHLRFQDCYVEGNNNVKGYDFFRNDHIITQMATHQLYYMNRGYGKKDALQKVEKEFYNRRMELEKKQKINMCLSIDKKIKPLYTDGYAYLYEKMADNEKAHLGLILKKLRAMREKLEKEQGGDGAQPHT”, the “soluble on expression in E. coli” value was “not soluble”.
